Experimental data as given in patent US20230151072A1 (XILIO DEVELOPMENT, published 2023).

Molecular target: T1, CD122-Fc (UniProt P14784 27-240, limits assumed)
T1 construct: Analyte flowed over the chip in SPR at 500, 250, 125, 62.5 and 31.25 nM; also called Fc-CD122; IL-2Rbeta
T1 sequence (looked up): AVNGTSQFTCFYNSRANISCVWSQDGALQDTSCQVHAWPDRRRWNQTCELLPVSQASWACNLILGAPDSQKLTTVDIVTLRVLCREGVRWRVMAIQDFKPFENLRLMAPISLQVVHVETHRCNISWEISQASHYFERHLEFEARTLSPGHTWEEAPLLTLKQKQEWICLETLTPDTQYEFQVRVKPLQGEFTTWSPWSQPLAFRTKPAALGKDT
Experiment: SPR, protease-cleaved construct amine-coupled on chip, CD122-Fc flowed
Protocol: For SPR studies testing binding of masked and non-masked IL-2 polypeptide constructs, Reichert Carboxymethyl Dextran Hydrogel Surface Sensor Chips were coated and immobilized with the construct of interest (e.g., a masked IL-2 polypeptide construct or non-masked IL-2 polypeptide construct) at 30 ug/ml in 10 mM Sodium Acetate, pH 5.0 via amine coupling with EDC and NHS. […] Using a Reichert 4Channel SPR, dilutions of CD25 or CD122 were flowed over the clips with the immobilized construct to determine the on rate at 25 degrees C. At equilibrium (approximately 3 minutes), the flow buffer was changed to PBST, to determine the off rates over 6 minutes. Between each run the chip was regenerated with 10 mM glycine, pH 2.0.
For some structures, when applicable, the KD was determined for the construct with or without having been previously cleaved by a protease.

Kd: 175 nM
B1: AK168 after protease cleavage (ligand)
chain: LYHPSGPAPTSSSTKKTQLQLEHLLLDLQMILNGINNYKNPKLTAMLTAKFAMPKKATELKHLQCLEEALKPLEEVLNLAQSKNFHLRPRDLISNINVIVLELKGSETTFMCEYADETATIVEFLNRWITFAQSIISTLT
notes: also called AK168 Cleavage Product
